Reference: patent publication US7790673 (NEW YORK UNIVERSITY, dated 2010)

Legend:
[1] = biological target: T1, full-length βAPP (βAPP751 cDNA, in HEK293 cells) (UniProt P05067-8 18-751, limits assumed); assay: immunoprecipitation of HEK293 cell lysate proteins with anti-cystatin C antibody, immunoblot with 22C11
T1 construct: whole, on cells; Tested by co-immunoprecipitation from cell lysates, not on intact cells; also called β amyloid precursor protein; cell associated full-length βAPP
Procedure: Media was replaced 16 hours after transient transfection, harvested 24 hours later, and spun at 4,500×g for 10 minutes at 4° C. Cells were harvested in RIPA buffer (1% NP-40, 0.5% cholic acid, 0.1% SDS; 150 mM NaCl, 10 mM Tris-HCl, pH 8.0) with protease inhibitors (7.5 μg/ml Aprotinin; 5 μg/ml leupeptin; 2 mM PMSF) and centrifuged for 5 minutes at 10,000 rpm at 4° C. Cellular and secreted proteins were immunoprecipitated with either polyclonal antibodies and Protein A Sepharose (Pharmacia Biotech) for 4 hours at 4° C. or with monoclonal antibodies overnight at 4° C. and with GammaBind Plus Sepharose beads (Pharmacia Biotech) for 2 hours at 4° C.
The interaction of cystatin C with βAPP was examined in HEK293 cells stably expressing either wild type or variant cystatin C genes, and transiently transfected with either wild type βAPP or vector cDNAs. […] The data indicates binding between cystatin C and cell associated full-length as well as sβAPP.

[2] = biological target: T2, Aβ1-40 synthetic peptide (UniProt P05067 672-711); assay: ELISA, Aβ1-40-coated wells, 0-37.5 nM cystatin C
T2 construct: domain: Aβ1-40; Coated on microtiter wells, freshly dissolved; also called Aβ40
Procedure: (§1) Two different batches of each peptide were used in the experiments. Wild type and variant cystatin C, purified from conditioned media as described above, were compared to urinary cystatin C (Calbiochem Biosciences). Polystyrene microtiter plates (Immunolon 2; Dynex Technology) were coated for 16 hours at 4° C. with freshly dissolved Aβ peptides (400 ng in 100 µl of NaHCO_3 $pH$ 9.6 per well). After blocking with 200 µl Superblock (Pierce), increasing concentrations of either wild type, variant or urinary cystatin C (0-37.5 nM) in 100 µl TBS-T (20 mM Tris-HCl, 150 mM NaCl pH 7.4, containing 0.1% Tween-20) were added to the Aβ-coated wells and incubated for 3 hours at 37° C. Bound cystatin C was detected with 100 µl polyclonal anti-cystatin C antibody (1:600) followed by 100 µl horseradish peroxidase-conjugated F(ab')2 anti-rabbit IgG (1:4000, Amersham) and developed using 100 µl 3,3',5,5'-tetramethyl-benzidine as substrate; Absorbency was read at 450 nm after stopping the reaction with 100 µl 2.5N sulfuric acid. Non-linear regression analysis, estimation of dissociation constants and comparison of protein binding data were assessed for statistical significance with GraphPad Prism software (GraphPad, San Diego, Calif., USA). P values were calculated by one-way ANOVA of three independent repeated measures of duplicate samples. […]

[3] = biological target: T3, Aβ1-42 synthetic peptide (UniProt P05067 672-713); assay: ELISA, Aβ1-42-coated wells, 0-37.5 nM cystatin C
T3 construct: domain: Aβ1-42; Coated on microtiter wells, freshly dissolved; Also used in the fibril and oligomerization assays; also called Aβ42
Procedure: as §1

Measured: binding result

B1: variant human cystatin C (L68Q, HCHWA-I variant) (other, UniProt P01034 27-146, looked up)
chain: SSPGKPPRLVGGPMDASVEEEGVRRALDFAVGEYNKASNDMYHSRALQVVRARKQIVAGVNYFLDVEQGRTTCTKTQPNLDNCPFHDQPHLKRKAFCSFQIYAVPWQGTMTLSKSTCQDA
notes: mature; Position 68 counts on the mature protein, not on the precursor with signal peptide; also called cystatin C-V; CysC-V
binds: [1] | [2] | [3]
